B1: Azoarcus group I ribozyme (parent)
chain: GUGCCUUGCGCCGGGAAACCACGCAAGGGAUGGUGUCAAAUUCGGCGAAACCUAAGCGCCCGCCCGGGCGUAUGGCAACGCCGAGCCAAGCUUCGGCGCCUGCGCCGAUGAAGGUGUAGAGACUAGACGGCACCCACCUAAGGCAAACGCUAUGGUGAAGGCAUAGUCCAGGGAGUGGCGAAAGUCACACAAACCGG

Variants of: B1
Assay: reverse-splicing fitness (ratio to wild type); higher = more active; in vitro selection; Mg2+ level not given
Method in brief: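 An in vitro group I ribozyme library with randomized positions was T7-transcribed and gel-purified. In triplicate, 10 pmol RNA in EPPS pH 7.5 was reacted with 50 pmoles of a 30-nt RNA substrate for 1 h at 37 °C across several added MgCl2 levels (1–48 mM), then stopped with EDTA. Products were reverse transcribed from a substrate-complementary primer, PCR-amplified and sequenced (HiSeq 4000). Fitness is a variant's read proportion after selection over that before, normalised to wild type.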

With C82A A120G A145C U176C as the variant, how does the reverse-splicing fitness read?
The reverse-splicing fitness was 0.0111.

Which reverse-splicing fitness does the source give for C82A A120C C169U U176C here?
Its reverse-splicing fitness is 0.0151.

With C82A A120C C169U U176A as the variant, how does the reverse-splicing fitness read?
Its reverse-splicing fitness is 0.0172.

For C82A A120C C169U U176G, which reverse-splicing fitness is on record?
Its reverse-splicing fitness is 0.00416.

Which reverse-splicing fitness does the source give for C82A A120G A145C C150G C169G U176C here?
Its reverse-splicing fitness is 0.00676.

With C82A A120G A145C C150G C169G U176G as the variant, how does the reverse-splicing fitness read?
Its reverse-splicing fitness is 0.00341.

Which reverse-splicing fitness does the source give for C82A A120G A145C C150G C169G U176A here?
Its reverse-splicing fitness is 0.00918.

For C82A A120G A145C C150U U176G, which reverse-splicing fitness is on record?
The reverse-splicing fitness was 0.0042.

Which reverse-splicing fitness does the source give for C82A A120G A145C C150U U176A here?
Its reverse-splicing fitness is 0.0106.

With C82A A120G A145C C150U U176C as the variant, how does the reverse-splicing fitness read?
The reverse-splicing fitness was 0.0102.

With C82A A120G A145U C150U U176G as the variant, how does the reverse-splicing fitness read?
The reverse-splicing fitness was 0.00531.

For C82A A120G A145U C150U U176C, which reverse-splicing fitness is on record?
The reverse-splicing fitness was 0.0158.

For C82A A120G A145U C150U U176A, which reverse-splicing fitness is on record?
Its reverse-splicing fitness is 0.0108.

With C82A A120U A145C C150A C169U U176A as the variant, how does the reverse-splicing fitness read?
The reverse-splicing fitness was 0.00259.

For C82A A120U A145C C150A C169U U176G, which reverse-splicing fitness is on record?
Its reverse-splicing fitness is 0.00218.

Which reverse-splicing fitness does the source give for C82A A120U A145C C150A C169U U176C here?
The reverse-splicing fitness was 0.00188.

For C82A A120G A145C C150U C169U U176C, which reverse-splicing fitness is on record?
The reverse-splicing fitness was 0.0106.

With C82A A120G A145C C150U C169U U176G as the variant, how does the reverse-splicing fitness read?
The reverse-splicing fitness was 0.00407.

With C82A A120G A145C C150U C169U U176A as the variant, how does the reverse-splicing fitness read?
The reverse-splicing fitness was 0.0197.

With C82A A120G A145U C150A C169A U176A as the variant, how does the reverse-splicing fitness read?
Its reverse-splicing fitness is 0.0132.

Which reverse-splicing fitness does the source give for C82A A120G A145U C150A C169A U176C here?
Its reverse-splicing fitness is 0.0115.

For C82A A120G A145U C150A C169A U176G, which reverse-splicing fitness is on record?
The reverse-splicing fitness was 0.00386.

For C82A A120C C169A U176C, which reverse-splicing fitness is on record?
The reverse-splicing fitness was 0.0229.

With C82A A120C C169A U176G as the variant, how does the reverse-splicing fitness read?
The reverse-splicing fitness was 0.00458.

With C82A A120C C169A U176A as the variant, how does the reverse-splicing fitness read?
Its reverse-splicing fitness is 0.0198.

Which reverse-splicing fitness does the source give for C82A A120G A145C C150G C169U U176G here?
The reverse-splicing fitness was 0.00438.

Which reverse-splicing fitness does the source give for C82A A120G A145C C150G C169U U176C here?
Its reverse-splicing fitness is 0.0123.

With C82A A120G A145C C150G C169U U176A as the variant, how does the reverse-splicing fitness read?
The reverse-splicing fitness was 0.0158.

Which reverse-splicing fitness does the source give for C82A A120G A145U C150U C169U U176G here?
Its reverse-splicing fitness is 0.00449.

With C82A A120G A145U C150U C169U U176A as the variant, how does the reverse-splicing fitness read?
The reverse-splicing fitness was 0.0201.

Which reverse-splicing fitness does the source give for C82A A120G A145U C150U C169U U176C here?
The reverse-splicing fitness was 0.0174.

For C82A A120G C150G U176C, which reverse-splicing fitness is on record?
The reverse-splicing fitness was 0.00829.

Which reverse-splicing fitness does the source give for C82A A120G C150G U176G here?
Its reverse-splicing fitness is 0.00336.

With C82A A120G C150G U176A as the variant, how does the reverse-splicing fitness read?
The reverse-splicing fitness was 0.00568.

For C82A A120C C169G U176G, which reverse-splicing fitness is on record?
The reverse-splicing fitness was 0.00508.

With C82A A120C C169G U176A as the variant, how does the reverse-splicing fitness read?
The reverse-splicing fitness was 0.0193.

For C82A A120C C169G U176C, which reverse-splicing fitness is on record?
Its reverse-splicing fitness is 0.0259.

Which reverse-splicing fitness does the source give for C82A A120C C150A C169U U176A here?
The reverse-splicing fitness was 0.0176.

Which reverse-splicing fitness does the source give for C82A A120C C150A C169U U176G here?
The reverse-splicing fitness was 0.00644.

For C82A A120C C150A C169U U176C, which reverse-splicing fitness is on record?
Its reverse-splicing fitness is 0.0137.

Which reverse-splicing fitness does the source give for C82A A120G A145G C150A U176A here?
Its reverse-splicing fitness is 0.0108.

For C82A A120G A145G C150A U176C, which reverse-splicing fitness is on record?
Its reverse-splicing fitness is 0.0213.

Which reverse-splicing fitness does the source give for C82A A120G A145G C150A U176G here?
Its reverse-splicing fitness is 0.00779.

For C82A A120G C169U U176G, which reverse-splicing fitness is on record?
Its reverse-splicing fitness is 0.00475.

For C82A A120G C169U U176C, which reverse-splicing fitness is on record?
Its reverse-splicing fitness is 0.0175.

With C82A A120G C169U U176A as the variant, how does the reverse-splicing fitness read?
The reverse-splicing fitness was 0.0233.

Which reverse-splicing fitness does the source give for C82A A120G C150G here?
Its reverse-splicing fitness is 0.00747.

For C82A A120G C150U, which reverse-splicing fitness is on record?
The reverse-splicing fitness was 0.0158.

For C82A A120G C150A, which reverse-splicing fitness is on record?
The reverse-splicing fitness was 0.0107.

With C82A A120G C150A C169A as the variant, how does the reverse-splicing fitness read?
Its reverse-splicing fitness is 0.011.

For C82A A120G C150A C169U, which reverse-splicing fitness is on record?
Its reverse-splicing fitness is 0.0102.

Which reverse-splicing fitness does the source give for C82A A120G C150A C169G here?
Its reverse-splicing fitness is 0.0102.

With C82A A120C C150U C169A U176A as the variant, how does the reverse-splicing fitness read?
The reverse-splicing fitness was 0.0201.

With C82A A120C C150U C169A U176G as the variant, how does the reverse-splicing fitness read?
The reverse-splicing fitness was 0.00673.

Which reverse-splicing fitness does the source give for C82A A120C C150U C169A U176C here?
Its reverse-splicing fitness is 0.0165.

For C82A A120G A145C C150U C169G U176G, which reverse-splicing fitness is on record?
Its reverse-splicing fitness is 0.00468.

For C82A A120G A145C C150U C169G U176A, which reverse-splicing fitness is on record?
Its reverse-splicing fitness is 0.0208.

Which reverse-splicing fitness does the source give for C82A A120G A145C C150U C169G U176C here?
Its reverse-splicing fitness is 0.0116.

Which reverse-splicing fitness does the source give for C82A A120G A145C C150A U176A here?
Its reverse-splicing fitness is 0.00995.

With C82A A120G A145C C150A U176C as the variant, how does the reverse-splicing fitness read?
Its reverse-splicing fitness is 0.00806.

With C82A A120G A145C C150A U176G as the variant, how does the reverse-splicing fitness read?
Its reverse-splicing fitness is 0.00435.

For C82A A120G A145C C150G C169U, which reverse-splicing fitness is on record?
The reverse-splicing fitness was 0.00806.

For C82A A120G A145C C150G C169G, which reverse-splicing fitness is on record?
Its reverse-splicing fitness is 0.00899.

For C82A A120G A145C C150G C169A, which reverse-splicing fitness is on record?
The reverse-splicing fitness was 0.00915.

With C82A A120G A145C C150U C169A as the variant, how does the reverse-splicing fitness read?
Its reverse-splicing fitness is 0.00915.

Which reverse-splicing fitness does the source give for C82A A120G A145C C150U C169G here?
The reverse-splicing fitness was 0.00984.

With C82A A120G A145C C150U C169U as the variant, how does the reverse-splicing fitness read?
Its reverse-splicing fitness is 0.00958.

For C82A A120G A145G C169A, which reverse-splicing fitness is on record?
The reverse-splicing fitness was 0.0151.

Which reverse-splicing fitness does the source give for C82A A120G A145G C169G here?
The reverse-splicing fitness was 0.0223.

Which reverse-splicing fitness does the source give for C82A A120G A145G C169U here?
Its reverse-splicing fitness is 0.0148.

For C82A A120G A145G C150U C169G U176C, which reverse-splicing fitness is on record?
The reverse-splicing fitness was 0.0199.

Which reverse-splicing fitness does the source give for C82A A120G A145G C150U C169G U176G here?
Its reverse-splicing fitness is 0.0046.

With C82A A120G A145G C150U C169G U176A as the variant, how does the reverse-splicing fitness read?
The reverse-splicing fitness was 0.0149.

Which reverse-splicing fitness does the source give for C82A A120G A145C C169A here?
Its reverse-splicing fitness is 0.0124.

With C82A A120G A145C C169G as the variant, how does the reverse-splicing fitness read?
The reverse-splicing fitness was 0.0188.

Which reverse-splicing fitness does the source give for C82A A120G A145C C169U here?
Its reverse-splicing fitness is 0.0141.

With C82A A120G A145C C150G as the variant, how does the reverse-splicing fitness read?
Its reverse-splicing fitness is 0.0075.

Which reverse-splicing fitness does the source give for C82A A120G A145C C150U here?
Its reverse-splicing fitness is 0.0107.

Which reverse-splicing fitness does the source give for C82A A120G A145C C150A here?
Its reverse-splicing fitness is 0.00678.

For C82A A120U A145C C150A C169A U176A, which reverse-splicing fitness is on record?
Its reverse-splicing fitness is 0.00185.

For C82A A120U A145C C150A C169A U176C, which reverse-splicing fitness is on record?
The reverse-splicing fitness was 0.00238.

For C82A A120U A145C C150A C169A U176G, which reverse-splicing fitness is on record?
Its reverse-splicing fitness is 0.00198.

With C82A A120G A145C C150A C169A U176C as the variant, how does the reverse-splicing fitness read?
The reverse-splicing fitness was 0.00527.

Which reverse-splicing fitness does the source give for C82A A120G A145C C150A C169A U176A here?
The reverse-splicing fitness was 0.0126.
